Target: the molecule itself
Test: SEC; Superose 6 10/300, 50 mM Tris-HCl pH 7.5, 0.03% DDM, 0.15 M NaCl; sample after ion exchange and the dimer fraction run again

B1: bovine anion exchanger 1 (AE1) (natural protein, UniProt Q9XSW5 1-930, looked up)
chain: MGDPEEYEDQLEETLEQKEYEDHDSVSIPMEEAEGDTIQEEEAEARVNQLTDTDYHTTSQHPETHKVCVQLRELVMDEKNQEIQWMETARWVGLEENLGKDGIWGRPHLPYLNFWSLLELQKAFAKGTVLLDLPGKSLAEVANQLLDRFTFEGQIQPDDQDNLLRVLLLKHSHASDMEALGGVKPVVVTHSGDPSEPLLPQHPSLETELFCEQGEGSTRGHAPEILGKSPQDWEATLVLVGCARFLKRPVLGFVRLKEPMEPEPKPEGSEEPAVPVRFLIVLLGPEGPNINYTQLGRAAATLMSERVFWNDAYLAQSKETLVQSLEGFLDCSLVLPPLDAPSEKALLSLVPVQKELLRRRYLPSPAKPDPSIFKDLDVKKGPGDTPEDPLQRTGKLFGGLVRDIRRRYPRYLSDITDALSPQVLSAIIFIYFAALTPAITFGGLLGDKTENMIGVSELLLSTALQGIIFSLLGAQPLLVLGFSGPLLVFEEAFYSFCQTNNLEYIVGRVWIGFWLILLVVLVVAFEGSFLVRFISRYTQEIFSFLISLIFIYETFYKLVTIFQDHPLQKNYDHDVLTTPKPQAALPNTALLSLVLMAGTFFLAMMLRKFKNSSYFPGKLRRIIGDFGVPISILIMVMVDALIQDTYTQKLSVPEGLSVSNPTERDWLIHPLGIRVEFPIWMMFASALPALLVFILIFLESQITTLIISKPERKMVKGSGFHLDLLLIIGMGGVGAIFGMPWLSATTVRTVTHANALTVMSKDSTPGAVSQIQGVKEQRISGLLVAVLVGVSILMGPVLRHIPLAVLFGIFLYMGVTSLSGIQLFDRVLLLLKPRKYYPEVPYARRVKTWRMHLFTITQIVCLVVLWVVRSIKQISLALPFILILTVPLRRFLLPFIFRDMELKLLDADDVKLNLDEQNGQDEYDEVAMPV
notes: anion exchanger 1 (AE1, band 3), bovine, native protein from erythrocyte membranes; monomer about 100 kDa; Solubilised in dodecyl maltoside (0.03% DDM in the final buffer); The dimer fraction from size exclusion was used; also called bovine AE1; full-length AE1 dimer; source: purified from bovine erythrocyte membranes (ghosts; DDM extraction, DE-52 ion exchange, Superose 6 size exclusion)
- stoichiometry N: 2
